In paper PMC3166367 one finds Kd data, which are given here for three substances.

The target in test [1] is dimeric (β15-44)2 fragment (β15-42 with Cys43 and Gly44 added, dimerized through Cys43). The test is described as follows: ELISA.
Test [2] concerns the target VE-cad(3) fragment (residues Phe210-Phe325), third domain of the extracellular portion of VE-cadherin. The test is described as follows: SPR.
Test [3] has as its target VE-cadherin (Homo sapiens) (UniProt P33151). The test can be described thus: SPR. The conditions noted are these: cited from earlier work.

Sequence of VE-cadherin (Homo sapiens) (P33151 48-599): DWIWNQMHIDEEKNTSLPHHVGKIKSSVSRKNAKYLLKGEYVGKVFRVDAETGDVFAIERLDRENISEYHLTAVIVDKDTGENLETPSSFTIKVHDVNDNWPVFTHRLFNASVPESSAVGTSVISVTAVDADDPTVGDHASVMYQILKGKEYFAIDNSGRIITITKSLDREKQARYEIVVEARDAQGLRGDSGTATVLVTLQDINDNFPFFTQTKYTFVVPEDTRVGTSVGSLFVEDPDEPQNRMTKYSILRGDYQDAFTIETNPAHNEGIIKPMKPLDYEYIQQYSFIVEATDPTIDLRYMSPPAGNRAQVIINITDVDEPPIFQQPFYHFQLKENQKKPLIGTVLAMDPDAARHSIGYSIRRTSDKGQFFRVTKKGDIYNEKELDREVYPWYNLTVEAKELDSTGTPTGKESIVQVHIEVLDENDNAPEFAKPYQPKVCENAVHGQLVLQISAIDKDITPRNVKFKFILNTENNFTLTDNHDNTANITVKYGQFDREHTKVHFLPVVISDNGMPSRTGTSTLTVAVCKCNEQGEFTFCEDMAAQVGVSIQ

Regarding “VE-cad(3) fragment (residues Phe210-Phe325), third domain of the extracellular portion of VE-cadherin (domain or fragment)”, the Kd in test [1] was found to be 146 nM.
For the substance “dimeric (β15-44)2 fragment (β15-42 with Cys43 and Gly44 added, dimerized through Cys43) (peptide)”, in test [2], the Kd was 715 nM.
As to “fibrin fragment (β15-66)2 15-66 (from UniProt P02675)”, the Kd in test [3] is 80 nM.
